Data on three substances can be found in paper doi:10.1101/2025.08.26.672322.

Experiment [1] deals with Gephyrin P1 wt. Kind of experiment: SEC.
Experiment [2] concerns the target Gephyrin Δ199-233. Kind of experiment: SEC.
The target of experiment [3] is LSβ, fusion protein of lumazine synthase and GlyR β-subunit ICD (pentameric GlyR model). Kind of experiment: co-sedimentation.
Experiment [4] deals with Gephyrin P1 wt. Kind of experiment: ITC.
For experiment [5], the target named is Gephyrin Δ199-233. In words: ITC.

In turn, Gephyrin P1 wt (natural protein) displayed a stoichiometry N with Gephyrin P1 wt [1] of 3.

Gephyrin Δ199-233 (natural protein) yielded a stoichiometry N in the experiment with Gephyrin Δ199-233 [2] of 3. Besides, the gephyrin in the pelleted fraction, fold of wt in experiment [3] amounted to 2 fold.

On to “GlyR β-subunit ICD peptide (domain or fragment)”, for which the KD high-affinity site with Gephyrin P1 wt [4] was determined as 63 nM; with Gephyrin Δ199-233 [5] it was 50 nM. The results for the KD low-affinity site with Gephyrin P1 wt [4] and in the experiment with Gephyrin Δ199-233 [5] were 1830 nM and 1540 nM, respectively.
